Article PMC3757182, “ATPase Mechanism of the 5′-3′ DNA Helicase, RecD2” (The Journal of Biological Chemistry, 2013)

Key:
PcrA [1] = target: T1, PcrA (Geobacillus stearothermophilus, UniProt P56255); assay: stopped-flow fluorescence, quench-flow HPLC, Pi release, single turnover; type: biochemical; settings: 8 μM PcrA, 10 μM dT20, 2 μM deac-aminoATP; 3 mM MgCl2, pH 7.5; labelled compound
T1 construct: recombinant, prepared as described previously
T1 sequence (P56255 1-724): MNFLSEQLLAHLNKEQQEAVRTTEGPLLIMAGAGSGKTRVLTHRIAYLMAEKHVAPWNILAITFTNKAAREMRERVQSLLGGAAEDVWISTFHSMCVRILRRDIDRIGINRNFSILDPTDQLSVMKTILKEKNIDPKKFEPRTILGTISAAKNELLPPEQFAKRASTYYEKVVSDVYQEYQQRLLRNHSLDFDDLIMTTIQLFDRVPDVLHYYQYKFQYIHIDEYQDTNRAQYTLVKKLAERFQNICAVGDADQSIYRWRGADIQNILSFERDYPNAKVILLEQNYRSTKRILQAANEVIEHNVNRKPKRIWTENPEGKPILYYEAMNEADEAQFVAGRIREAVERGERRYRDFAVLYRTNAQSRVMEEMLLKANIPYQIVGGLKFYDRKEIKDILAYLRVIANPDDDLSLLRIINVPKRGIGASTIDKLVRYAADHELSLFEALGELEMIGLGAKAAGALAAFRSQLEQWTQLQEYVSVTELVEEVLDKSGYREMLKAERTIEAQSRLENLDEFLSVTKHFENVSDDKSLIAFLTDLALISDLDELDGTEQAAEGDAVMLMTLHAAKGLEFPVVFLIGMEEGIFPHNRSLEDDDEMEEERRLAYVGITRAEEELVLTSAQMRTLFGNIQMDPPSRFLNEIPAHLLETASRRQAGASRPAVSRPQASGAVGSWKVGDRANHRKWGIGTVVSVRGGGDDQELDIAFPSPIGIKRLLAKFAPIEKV

PcrA [2] = target: T1, PcrA; assay: stopped-flow fluorescence, koff/kon; type: binding
[3] = substrate: CNc1ccccc1C(=O)O[C@H]1C[C@H](n2cnc3c(N)ncnc32)O[C@@H]1COP(=O)(O)OP(=O)(O)OP(=O)(O)O; assay: steady-state ATPase, MDCC-PBP phosphate release; type: biochemical, Deinococcus radiodurans; settings: with 500 nM dT20 ssDNA, 10 mM MgCl2, pH 7.5, 20 °C
Description: (§1) steady-state ATPase, MDCC-PBP phosphate release on RecD2

[4] = substrate: Nc1ncnc2c1ncn2[C@@H]1O[C@H](COP(=O)(O)OP(=O)(O)OP(=O)(O)O)[C@@H](O)[C@H]1O; assay: steady-state ATPase, MDCC-PBP phosphate release; type: biochemical, Deinococcus radiodurans; settings: with 500 nM dT20 ssDNA, 10 mM MgCl2, pH 7.5, 20 °C
Description: as §1

`CCN(CC)c1ccc2cc(C(=O)N[C@H]3[C@@H](O)[C@H](n4cnc5c(N)ncnc54)O[C@@H]3COP(=O)(O)OP(=O)(O)OP(=O)(O)O)c(=O)oc2c1` [deac-aminoATP, 3′-(7-diethylaminocoumarin-3-carbonylamino)-3′-deoxyadenosine-5′-triphosphate] was tested, and the “stopped-flow fluorescence, quench-flow HPLC, Pi release, single turnover” value (PcrA [1]) was “After mixing excess PcrA·dT20 with deac-aminoATP, there was a biphasic increase in fluorescence”.

With `CCN(CC)c1ccc2cc(C(=O)N[C@H]3[C@@H](O)[C@H](n4cnc5c(N)ncnc54)O[C@@H]3COP(=O)(O)OP(=O)(O)O)c(=O)oc2c1` [deac-aminoADP] the Kd (PcrA [2]) was 1700 nM.

B1: RecD2 (Deinococcus radiodurans R1 = ATCC 13939 = DSM 20539) (protein)
chain: SQQGLERRLLAGLQGLGLTINQAQRAVKHFGADALDRLEKDLFTLTEVEGIGFLTADKLWQARGGALDDPRRLTAAAVYALQLAGTQAGHSFLPRSRAEKGVVHYTRVTPGQARLAVETAVELGRLSEDDSPLFAAEAAATGEGRIYLPHVLRAEKKLASLIRTLLATPPADGAGNDDWAVPKKARKGLSEEQASVLDQLAGHRLVVLTGGPGTGKSTTTKAVADLAESLGLEVGLCAPTGKAARRLGEVTGRTASTVHRLLGYGPQGFRHNHLEPAPYDLLIVDEVSMMGDALMLSLLAAVPPGARVLLVGDTDQLPPVDAGLPLLALAQAAPTIKLTQVYRQAAKNPIIQAAHGLLHGEAPAWGDKRLNLTEIEPDGGARRVALMVRELGGPGAVQVLTPMRKGPLGMDHLNYHLQALFNPGEGGVRIAEGEARPGDTVVQTKNDYNNEIFNGTLGMVLKAEGARLTVDFDGNVVELTGAELFNLQLGYALTVHRAQGSEWGTVLGVLHEAHMPMLSRNLVYTALTRARDRFFSAGSASAWQIAAARQREARNTALLERIRAH
notes: N-terminal truncation lacking the first 150 amino acids; recombinant; monomer
B1 gave a Km [3] of 12.1 ± 1.7 µM, a kcat [3] of 40.2 ± 2.4 s⁻¹ and a Km [4] of 30.3 ± 1.5 µM. For the same molecule, the kcat [4] was 86.9 ± 1.5 s⁻¹.
